T1: recombinant, soluble human ASGR-1 (human, UniProt P07306 62-291)
T1 construct: biotinylated in the binning assay; also called soluble huASGR-1; Soluble ASGR-1 (Amgen)
T1 sequence: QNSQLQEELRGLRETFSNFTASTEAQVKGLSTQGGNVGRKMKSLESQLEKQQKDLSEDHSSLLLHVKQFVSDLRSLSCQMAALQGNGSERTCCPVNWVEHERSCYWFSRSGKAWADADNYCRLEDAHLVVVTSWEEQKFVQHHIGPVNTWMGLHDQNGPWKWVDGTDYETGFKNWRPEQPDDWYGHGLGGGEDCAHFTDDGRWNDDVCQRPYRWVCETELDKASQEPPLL

B1: 75G3 (antibody, V domains shown)
VH: QVQLQQWGAGLLKPSETLSLTCAVYGGSLSGSYWSWIRQPPGKGLEWIGEINLSGSTNYNPSLKSRVTISVDTSKSQFSLTLRSVTAADTAVYYCARDYGGLDYWGQGTLVTVSS
VL: EIVLTQSPGTLSLSPGERATLSCRARQNVDSSYLAWYQQKPGQAPRLLIYGASSRATGIPDRFSGSGSGTDFTLTISRLEPEDFAVFYCQQYERSPWTFGQGTKVEIK
notes: hybridoma mAb
B2: 74H7 (antibody, V domains shown)
VH: QVQLQQWGAGLLKPSEPLSLTCAVYGGSFSGPYWSWIRQPPGKGLEWIGEINHSGSTNYNPSLKSRVTISVDTSKNQFSLKLTSVTAADTAVYYCARDYGGLDVWGQGTTVTVSS
VL: ELVLTQSPGTLSLSPGERATLSCRASQNIYSSYLAWYQQKPGQAPRLLIYGASSRATGIPDRFSGSGSGTDFTLTISRLEPEDFAVYCCQQYESSPWTFGQGTKVEIK
notes: hybridoma mAb
B3: 74B2 (antibody, V domains shown)
VH: QVQLQQWGAGLLKPSEPLSLTCAVYGGSFSGPYWSWIRQPPGKGLEWIGEINHSGSTNYNPSLTSRVTISVDTSKNQFSLKLTSVTAADSAVYYCARDYGGLDVWGQGTTVTVSS
VL: ELVLTQSPGTLSLSPGERATLSCRASQNIYSSYLAWYQQKPGQAPRLLIYGASSRATGIPDRFSGSGSGTDFTLTISRLEPEDFAVYCCQQYESSPWTFGQGTKVEIK
notes: hybridoma mAb
B4: 85F7 (antibody, V domains shown)
VH: QVQLQQWGAGLLKPSEPLSLTCAVYGGSFSGPYWSWIRQPPGKGLEWIGEINHSGSTNYNPSLKSRVTISVDTSKNQFSLKLTSVTAADTAVYYCARDYGGLDVWGQGTTVTVSS
VL: EPVLTQSPGTLSLSPGERATLSCRASQNIYSNYLAWYQQKPGQAPRLLIYGASSRATGIPDRFSGSGSGTDFTLTISRLEPEDFAVYCCQQYESSPWTFGQGTKVEIK
notes: hybridoma mAb
B5: 149A1 (antibody, V domains shown)
VH: EVQLVESGGGLVQPGGSLRLSCAASGFTFSSYNMNWVRQAPGKGLEWVSYISRSSNTKHYADSVKGRFTISRDNAKNSLYLQMNSLRDEDTAVYYCARDRSGSYGYFYYYGLDVWGQGTTVTVSS
VL: not shown
notes: hybridoma mAb
B6: 146A8 (antibody, V domains shown)
VH: EVKLVESGGGLVQPGESLRLSCVASGFTFSNYNMNWVRQAPGKGLEWVSYISRSSNTKYYADSVRGRFTISRDNAKNSLYLQMNSLRDEDTAVYYCARDRSGSYGYFYYYGLDVWGQGTTVTVSS
VL: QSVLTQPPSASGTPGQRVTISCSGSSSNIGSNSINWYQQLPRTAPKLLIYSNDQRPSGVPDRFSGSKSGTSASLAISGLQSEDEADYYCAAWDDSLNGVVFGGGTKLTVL
notes: hybridoma mAb
B7: 146B6 (antibody, V domains shown)
VH: EVQLVESGGGLVQPGGSLRLSCAASGFTFSSYNMNWVRQAPGKGLEWVSYISRSSNTKHYADSVKGRFTISRDNAKNSLYLQMDSLRDEDTAVYYCARDRSGSYGYFYYYGLDVWGQGTTVTVSS
VL: not shown
notes: hybridoma mAb
B8: 218G4 (antibody, V domains shown)
VH: QVQLVESGGGVVQPGRSLRLSCAASGFTFSSYGLHWVRQAPGKGLEWVAVIWYDGSNKYYADSVKGRFTISRDNSKNTLYLQMNSLRVEDTAVYYCANWYYYYYGMDVWGQGTTVTVSS
VL: QSVLTQPPSVSAAPGQKVTISCSGSSSNIGNNYVSWYQQLPGTAPKLLLYDSNKRPSGIPARFSGSKSGTSATLGITGLQTGDEADYYCGTWDSSLNTVVFGGGTKLTVL
notes: hybridoma mAb
B9: 172B12 (antibody, V domains shown)
VH: QVQLVQSGAEVKKPGASVTVSCKASGYTFRSYYMYWVRQAPGQGLEWVGTINPSGGSTDYAQKFQGRVTMTRDTSTSTLYMELNSLRSEDTAVYYCASGWELNYWGQGTLVTVSS
VL: SSELTQDPAVSVALGQTVRITCQGDSLRNYYASWYQQKPGQAPILVIYTKNSRPSGIPDRFSGSTSGNTASLTITGAQAEDEADYYCNSRDSSGNHVVFGGGTKLTVL
notes: hybridoma mAb
B10: 172C3 (antibody, V domains shown)
VH: QVQLVQSGAEVKKPGASVKVSCKASGYTFRSYYMYWVRQAPGQGLEWVGTINPSGGSTNYAQKFQGRVTMTRDTSTSTLYMELNSLRSEDTAVYYCASGWELNYWGQGTLVTVSS
VL: SSELTQDPAVSVALGQTVRITCQGDSLRNYYVSWYQQKPGQAPILVIYTKNSRPSGIPDRFSGSTSGNTASLTITGTQAEDEADYYCNSRDSSGNHVVFGGGTKLTVL
notes: hybridoma mAb
B11: 198B9 (antibody, V domains shown)
VH: QVQLVESGGGVVQPGRSLRLSCAASGFTFSNYGMHWVRQAPGKGLEWVAIIWFDGSNKYYVDSVKGRFTISRDNSKNTLFLQMSSLRAEDTAVYYCAREWLQFRYYYGMDVWGQGTTVTVSS
VL: DIQMTQSPSSLSASVGDRVTITCRASQGIRKDLGWYQQKPGKAPKRLIYAASSLQSGVPSRFSGSGSGTEFTLTISSLQPEDFATYVCLQHYRYPFTFGPGTKVDFK
notes: hybridoma mAb
B12: 193E7 (antibody, V domains shown)
VH: QVQLQQWGAGLLKPSETLSLTCAVYGGSFSGYFWTWIRQPPGKGLEWIGEINHSGSTNYNPSLKSRVTISVDTSKNQFSLKLSSVTAADTAVYYCARDYGADYWGQGTLVAVSA
VL: DIQMTQSPSSLSASVGDRVTITCRASQGIRNDLGWYQQKPGKAPKRLIYSASSLQRGVPSRFSGSGSGTEFTLTISSLQPEDFATYYCLQHKRYPLTFGGGTKVEIK
notes: hybridoma mAb
B13: 199E3 (antibody, V domains shown)
VH: QVQLQQWGAGLLKPSETLSLTCAVYGGSFSGYFWTWIRQPPGKGLEWIGEINHSGSTNYNPSLKSRVTISVDTSKNQFSLKLSSVTAADTAVYYCARDYGADYWGQGTLVAVSA
VL: DIQMTQSPSSLSASVGDRVTITCRASQGIRNDLGWYQQKPGKAPKRLISSASSLQRGVPSRFSGSGSGTEFTLTISSLQPEDFATYYCLQHKRYPLTFGGGTKVEIK
notes: hybridoma mAb
B14: 199A7 (antibody, V domains shown)
VH: QVQLVESGGGVVQPGRSLRLSCAASGFTFSNYGMHWVRQAPGKGLEWVAIIWFDGSNKYYADSVKGRFTISRDNSKNTLFLQMSSLRAEDTAVYYCAREWLQFRYYYGMDVWGQGTTVTVSS
VL: DIQMTQSPSSLSASVGDRVTITCRASQGIRKDLGWYQQKPGKAPKRLIYAASSLQSGVPSRFSGSGSGTEFTLTISSLQPEDFATYVCLQHYRYPFTFGPGTKVDFK
notes: hybridoma mAb

Columns and labels:
[1] = target: T1, recombinant, soluble human ASGR-1; experiment: Octet BLI dissociation, pH 5.6 plus calcium
Method in brief: (§1)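 Antibodies were captured on anti-human Fc biosensors, and soluble ASGR-1 (6 ug/ml) was associated for 2 min in Tris buffer containing 1 mM CaCl2 at pH 7.4, followed by 10 min dissociation under each test condition. The signal at the end of association was set as 100%. Percent ASGR-1 still bound after 1 min of dissociation was compared with the pH 7.4 plus calcium control, and >10% extra dissociation was scored as sensitive.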

[2] = target: T1, recombinant, soluble human ASGR-1; experiment: Octet BLI dissociation, pH 7.4 minus calcium
Method in brief: as §1

[3] = target: T1, recombinant, soluble human ASGR-1; experiment: Octet BLI dissociation, pH 5.6 minus calcium
Method in brief: as §1

Binder | % Change Compared to pH 7.4 + Calcium [1] | % Change Compared to pH 7.4 + Calcium [2] | % Change Compared to pH 7.4 + Calcium [3]
B1 | -1% | -1% | 2%
B2 | -2% | 1% | 1%
B3 | -9% | 8% | -5%
B4 | -2% | 2% | 2%
B5 | -7% | 2% | 9%
B6 | -9% | 2% | 25%
B7 | -5% | 2% | 13%
B8 | -4% | 1% | 0%
B9 | -27% | -14% | -13%
B10 | -26% | -9% | 0%
B11 | 2% | 3% | 11%
B12 | -9% | -9% | -4%
B13 | -4% | -5% | -4%
B14 | 1% | 1% | 10%
